These results are taken from patent publication US10555972 (INNOPEUTICS, dated 2020).

For this test, the target named is T1, Nuclear receptor-related factor 1 (Nurr1) (mouse, UniProt Q06219 1-598).
T1 construct: Endogenous transcription factor in mouse ventral midbrain lysates (IP) or frozen tissue sections (PLA); not a recombinant construct; also called NR4A2
The test can be described thus: reciprocal co-immunoprecipitation and Western blot, midbrain lysates of 10-week-old mice. As to the method:
Interaction between Nurr1 and Foxa2 (in mouse VM tissues at 10 weeks of age) was assessed by an IP. Tissues were lysed in IP lysis buffer (Thermo Scientific, Waltham, Mass.) supplemented with protease inhibitors. Lysates were incubated with an anti-Nurr1 antibody (1:1,000, mouse, R&D Systems) or an anti-Foxa2 antibody (1:1,000, goat, Santa Cruz Biotechnology) at 4° C. for 18-24 hours. The mixtures were shaken with magnetic beads (Life Technologies) at room temperature for 1-2 hours. After washing, immunoprecipitated proteins were eluted in a sample buffer and subjected to a Western blot analysis using an anti-Foxa2 antibody (1:1,000, goat, Cell Signaling Technology) or an anti-Nurr1 antibody (1:500, mouse, R&D Systems).
Close physical interaction of these two proteins was confirmed by an in situ proximity ligation assay (PLA), which allows visualization of protein-protein binding by red fluorescence (554 nm) emanating from two proteins in close proximity (FIG. 2E).
A general note: Immunoblotting shows a protein as a band on a membrane.

T1 sequence (Q06219 whole entry): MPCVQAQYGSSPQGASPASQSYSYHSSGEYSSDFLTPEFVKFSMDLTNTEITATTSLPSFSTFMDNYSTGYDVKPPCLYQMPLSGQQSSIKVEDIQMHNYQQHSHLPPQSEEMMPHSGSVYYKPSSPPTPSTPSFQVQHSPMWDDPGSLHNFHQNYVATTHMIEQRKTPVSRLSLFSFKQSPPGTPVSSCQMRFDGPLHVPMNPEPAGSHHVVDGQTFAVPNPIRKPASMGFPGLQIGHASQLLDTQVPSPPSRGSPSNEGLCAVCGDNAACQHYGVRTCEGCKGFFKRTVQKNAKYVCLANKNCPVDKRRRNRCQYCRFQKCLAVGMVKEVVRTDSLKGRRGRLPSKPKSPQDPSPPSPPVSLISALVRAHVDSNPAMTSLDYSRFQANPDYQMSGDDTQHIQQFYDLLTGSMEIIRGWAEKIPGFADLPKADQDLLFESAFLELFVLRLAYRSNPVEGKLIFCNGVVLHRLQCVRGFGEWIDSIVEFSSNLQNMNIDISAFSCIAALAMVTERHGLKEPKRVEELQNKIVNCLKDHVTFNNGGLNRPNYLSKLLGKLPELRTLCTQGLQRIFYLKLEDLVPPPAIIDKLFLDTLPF

B1: forkhead box protein A2 (Foxa2) (other, mouse, UniProt P35583 1-459, looked up)
chain: MLGAVKMEGHEPSDWSSYYAEPEGYSSVSNMNAGLGMNGMNTYMSMSAAAMGGGSGNMSAGSMNMSSYVGAGMSPSLAGMSPGAGAMAGMSGSAGAAGVAGMGPHLSPSLSPLGGQAAGAMGGLAPYANMNSMSPMYGQAGLSRARDPKTYRRSYTHAKPPYSYISLITMAIQQSPNKMLTLSEIYQWIMDLFPFYRQNQQRWQNSIRHSLSFNDCFLKVPRSPDKPGKGSFWTLHPDSGNMFENGCYLRRQKRFKCEKQLALKEAAGAASSGGKKTAPGSQASQAQLGEAAGSASETPAGTESPHSSASPCQEHKRGGLSELKGAPASALSPPEPAPSPGQQQQAAAHLLGPPHHPGLPPEAHLKPEHHYAFNHPFSINNLMSSEQQHHHSHHHHQPHKMDLKAYEQVMHYPGGYGSPMPGSLAMGPVTNKAGLDASPLAADTSYYQGVYSRPIMNSS
notes: Endogenous transcription factor in mouse ventral midbrain lysates (IP) or frozen tissue sections (PLA); not a recombinant construct
As for B1, the binding result is listed as “binds”.
